The chains are these.
T1: Taf14ET (Taf14_(174–244)) (Saccharomyces cerevisiae, UniProt P35189 174-244)
T1 chain: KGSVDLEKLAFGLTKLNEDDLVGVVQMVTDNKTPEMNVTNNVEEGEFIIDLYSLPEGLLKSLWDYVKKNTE

T2: Taf14ET (Taf14_(174–244)) (Saccharomyces cerevisiae), P35189
T2 chain: T1 chain

T3: Taf14ET F220A (Saccharomyces cerevisiae)
T3 chain: T1 chain with F47A

T4: Sth1_(1183–1359) (Saccharomyces cerevisiae, UniProt P32597 1183-1359)
T4 construct: source: E. coli Rosetta, purified
T4 sequence (looked up): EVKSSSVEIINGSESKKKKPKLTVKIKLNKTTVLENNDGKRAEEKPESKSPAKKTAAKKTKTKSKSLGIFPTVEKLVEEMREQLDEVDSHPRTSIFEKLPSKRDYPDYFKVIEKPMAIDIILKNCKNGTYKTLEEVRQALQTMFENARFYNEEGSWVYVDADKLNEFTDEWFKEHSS

B1: Ino80_(368–390) (peptide, UniProt P53115 368-390, looked up)
peptide: DSKLNIKITLKQYHVKRLKKLIN
notes: Ino80, Saccharomyces cerevisiae, residues 368-390; also called Ino80EBM; source: synthetic peptide (Scilight-Peptide and GenScript) for NMR
B2: Taf2_(1393–1406) (peptide, UniProt P23255 1393-1406, looked up)
peptide: RSFMVKIRTKNDAK
notes: Taf2, Saccharomyces cerevisiae, residues 1393-1406; source: synthetic peptide (Scilight-Peptide and GenScript) for NMR
B3: Tfg1 motif from 613 to 628 (peptide, UniProt P41895 613-628, looked up)
peptide: IKNCVIILKGDKKILK
notes: Tfg1, Saccharomyces cerevisiae, first motif, residues 613-628
B4: Snf5_(771–800) (peptide, UniProt P18480 771-800, looked up)
peptide: SPPCYIIDHIPGHSLLLSIKLPGKVNTKEE
notes: also called Snf5EBM; source: synthetic peptide (Scilight-Peptide and GenScript) for NMR
B5: Sth1EBM (Sth1_(1183–1240)) (domain or fragment, Saccharomyces cerevisiae, UniProt P32597 1183-1240, looked up)
chain: EVKSSSVEIINGSESKKKKPKLTVKIKLNKTTVLENNDGKRAEEKPESKSPAKKTAAK
notes: source: E. coli Rosetta, purified (Ni-NTA, on-beads digestion, SEC)
B6: Sth1EBM V1206A (domain or fragment, Saccharomyces cerevisiae, UniProt P32597 1183-1240, looked up)
chain: B5 chain with V24A
notes: source: E. coli Rosetta, purified (same protocol as the wild type)
B7: Sth1EBM L1204A (domain or fragment, Saccharomyces cerevisiae, UniProt P32597 1183-1240, looked up)
chain: B5 chain with L22A
notes: as for B6
B8: Sth1EBM I1208A (domain or fragment, Saccharomyces cerevisiae, UniProt P32597 1183-1240, looked up)
chain: B5 chain with I26A
notes: also called Sth1^I1208A; source: E. coli Rosetta, purified (same protocol as the wild type)
B9: Sth1EBM K1207E (domain or fragment, Saccharomyces cerevisiae, UniProt P32597 1183-1240, looked up)
chain: B5 chain with K25E
notes: as for B6
B10: Sth1EBM K1209E (domain or fragment, Saccharomyces cerevisiae, UniProt P32597 1183-1240, looked up)
chain: B5 chain with K27E
notes: as for B6
B11: Sth1EBM L1210A (domain or fragment, Saccharomyces cerevisiae, UniProt P32597 1183-1240, looked up)
chain: B5 chain with L28A
notes: as for B6
B12: Sas3_(111–129) (peptide, UniProt P34218 111-129, looked up)
peptide: SEELKVRIKYDSIKFFNFE
notes: Sas3, Saccharomyces cerevisiae, residues 111-129; source: synthetic peptide (Scilight-Peptide and GenScript) for NMR
B13: Tfg1 motif from 685 to 700 (peptide, UniProt P41895 685-700, looked up)
peptide: EAIGDGKVNIKEFGKF
notes: Tfg1, Saccharomyces cerevisiae, second motif, residues 685-700
B14: Tfg1 fragment containing both motifs (domain or fragment)
chain: DTLSKSKRSSPKKQQKKATNAHVHKEPTLRVKSIKNCVIILKGDKKILKSFPEGEWNPQTTKAVDSSNNASNTVPSPIKQEEGLNSTVAEREETPAPTITEKDIIEAIGDGKVNIKEFGKFIRRKYPGAENKKLMFAIVKKLCRKVGNDHMELKKE
B15: Taf14ET (Taf14_(174–244)) (domain or fragment, Saccharomyces cerevisiae, UniProt P35189 174-244, looked up)
chain: T1 chain
notes: Taf14, Saccharomyces cerevisiae, ET domain, residues 174-244; 15N- or 15N/13C-labelled for NMR; also called Taf14 ET domain; 15N-Taf14ET; source: E. coli Rosetta, purified (Ni-NTA, on-beads digestion, SEC)
B16: GST-Taf14_(174–244) (domain or fragment, Saccharomyces cerevisiae, UniProt P35189 174-244, looked up)
chain: T1 chain
notes: Taf14, Saccharomyces cerevisiae, ET domain, residues 174-244; also called GST-Taf14ET; GST-tagged Taf14ET; source: E. coli Rosetta, purified (Ni-NTA, eluted as GST-fused protein, SEC); not shown: 6*His-GST, N-terminal, kept

In data set [1] the target is T1, Taf14ET (Taf14_(174–244)). The data set is described as follows: ITC.
Data set [2] deals with B15. The data set is described as follows: ITC; peptide at 1.0 mM in the syringe titrated into Taf14ET at 0.1 mM in the cell; 20 mM phosphate pH 7.0, 100 mM NaCl, 2 mM DTT; 25 °C; one binding site model. The conditions noted are these: both partners purified. On the technique in general: ITC needs no label: the signal is the heat of the interaction.
For data set [3], the target named is T2, Taf14ET (Taf14_(174–244)) …. Briefly: ITC. Particulars: modification not given.
Data set [4] addresses B16. Briefly: pull-down; GST-tagged ET domain (25 μg) and binding partner (50 μg) with glutathione–Sepharose 4B beads; 25 mM Tris-HCl pH 8.0, 150 mM NaCl, 2 mM DTT; 4 °C, 3 h; SDS-PAGE. The conditions noted are these: both partners purified.
Data set [5] deals with T3, Taf14ET F220A. Briefly: ITC.
The target of data set [6] is Taf14ET F220R (Saccharomyces cerevisiae, UniProt P35189 174-244, F220R). The data set is described as follows: ITC.
Data set [7] has as its target Taf14ET I222R (Saccharomyces cerevisiae, UniProt P35189 174-244, I222R). The data set is described as follows: ITC.
For data set [8], the target named is T1, Taf14ET (Taf14_(174–244)). The data set is described as follows: ITC.
Data set [9] addresses T1, Taf14ET (Taf14_(174–244)). The data set is described as follows: ITC.
Data set [10] deals with the molecule itself. Briefly: 15N-1H HSQC at several concentrations; apo 15N-Taf14ET at 0.05, 0.1, 0.2 and 0.5 mM.
Data set [11] has as its target Sth1EBM L1204A (Saccharomyces cerevisiae, UniProt P32597 1183-1240, L1204A). Briefly: ITC.
Data set [12] concerns the target Sth1EBM K1209E (Saccharomyces cerevisiae, UniProt P32597 1183-1240, K1209E). Briefly: ITC.
Data set [13] addresses Sth1EBM K1207E (Saccharomyces cerevisiae, UniProt P32597 1183-1240, K1207E). Briefly: ITC.
For data set [14], the target named is Sth1EBM L1210A (Saccharomyces cerevisiae, UniProt P32597 1183-1240, L1210A). The data set is described as follows: ITC.
For data set [15], the target named is Sth1EBM I1208A (Saccharomyces cerevisiae, UniProt P32597 1183-1240, I1208A). Briefly: ITC.
In data set [16] the target is Sth1EBM V1206A (Saccharomyces cerevisiae, UniProt P32597 1183-1240, V1206A). The data set is described as follows: ITC.
The target in data set [17] is T4, Sth1_(1183–1359). Briefly: pull-down; GST-tagged ET domain (25 μg) and binding partner (50 μg) with glutathione–Sepharose 4B beads; 25 mM Tris-HCl pH 8.0, 150 mM NaCl, 2 mM DTT; 4 °C, 3 h; SDS-PAGE. The conditions noted are these: both partners purified.

Substitutions are numbered along the chain they refer to. In names and notes the source's numbering stands. Several values for one entry are separate records, joined by “and”; a condition that tells them apart may be missing. Equal values may be shown once.

By Kd is commonly meant the free concentration of one partner at which half of the binding sites on the other are occupied at equilibrium, for simple one-to-one binding. A lower Kd goes with a tighter complex. In the case of B1, the Kd in data set [1] was found to be 0.25 µM. In data set [2], the binding result was “binds”.

Molecule B2 gave a Kd in data set [1] of 0.8 µM. The binding result in [2] is “binds”.

As for B3, the Kd in data set [2] is ~17 µM.

For SPPCYIIDHIPGHSLLLSAKLPGKVNTKEE [Snf5EBM I789A], the Kd in data set [3] was found to be 189 µM.

Turning to DSKLNAKITLKQYHVKRLKKLIN [Ino80EBM I373A], the Kd in data set [3] was found to be 3.86 µM.

B4: the affinity in [1], expressed as Kd, was 2.48 µM. The binding result in data set [2] is reported as “binds”.

For the molecule KKKPKLTVKIKLNKTTVLENNDGKRAE (domain or fragment, Saccharomyces cerevisiae, UniProt P32597 1199-1225, looked up, source: E. coli Rosetta, purified) [Sth1_(1199–1225)], in [4], the binding result is “binds”.

B5: the Kd in data set [5] was 0.68 µM; in [6] it was 3.5 µM; in [7] it was 54.6 µM; in data set [8], 0.05 µM; in [9], 0.372 µM and 0.194 µM; in [2], ~0.055 µM.

Regarding B6, the binding result in data set [2] is “binds”.

With B7, the binding result in data set [2] is reported as “binds”.

B8: the “fold increase of KD against wild-type Sth1EBM” value (“fold increase of KD” for short) in [2] is 270 fold.

Take B9: the “fold increase of KD” value in data set [2] worked out at 154 fold.

For the molecule B10, the “fold increase of KD” value in [2] was determined as 79 fold.

Regarding B11, in data set [2], the binding result is “binds”.

B12: in data set [1], the Kd came to 31.3 µM. Also, the binding result in [2] is “binds”.

With SPPCYIIDHIPGHSLLASIKLPGKVNTKEE [Snf5EBM L787A], the Kd in data set [3] was 41.5 µM.

As to B13, the Kd in data set [2] is ~9 µM.

As for DSKLNIKITAKQYHVKRLKKLIN [Ino80EBM L377A], in data set [3], the Kd stood at 3.87 µM.

As for B14, the Kd in [2] is ~0.33 µM.

For the molecule B15, the binding result in data set [10] was “binds”. The Kd in data set [11] is 2.06 µM; in data set [12], 7.69 µM and 3.94 µM; in data set [13], 3.94 µM and 7.69 µM; in [14], 1.14 µM; in data set [15] it was 13.4 µM; in data set [16], 2.04 µM.

With B16, the binding result in data set [17] is given as “binds”.
